This passage reports Kd results from patent US20150275192.

Bounds are passed on as bounds.

Series [1] deals with L1-CAM (CD171) extracellular domain (UniProt P32004). Briefly: FP. As to conditions: 5' DNA primer fd; remainder A = alpha-thio-dA, C = gemcitabine (2',2'-difluoro-dC), G = FANA-G, T = floxuridine (5-fluoro-dU); exact value only in figure.
Series [2] addresses T1, CD30 extracellular domain (UniProt P28908).
T1 sequence: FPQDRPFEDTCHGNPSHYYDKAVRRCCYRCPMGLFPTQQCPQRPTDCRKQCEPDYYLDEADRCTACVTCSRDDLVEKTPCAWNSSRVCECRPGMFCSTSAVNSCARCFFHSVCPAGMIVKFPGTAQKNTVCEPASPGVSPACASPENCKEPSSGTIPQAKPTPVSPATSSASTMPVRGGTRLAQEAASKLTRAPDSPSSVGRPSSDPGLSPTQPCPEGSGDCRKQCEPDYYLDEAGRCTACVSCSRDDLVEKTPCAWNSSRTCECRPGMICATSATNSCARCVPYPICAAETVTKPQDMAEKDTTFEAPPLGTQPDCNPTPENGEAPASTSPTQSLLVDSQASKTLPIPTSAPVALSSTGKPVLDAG
Nature of the series: FP. As to conditions: 5' DNA primer fd; remainder A = alpha-thio-dA, C = gemcitabine (2',2'-difluoro-dC), G = FANA-G, T = floxuridine (5-fluoro-dU); exact value only in figure.

L1-CAM (CD171) extracellular domain, sequence (P32004 20-1120): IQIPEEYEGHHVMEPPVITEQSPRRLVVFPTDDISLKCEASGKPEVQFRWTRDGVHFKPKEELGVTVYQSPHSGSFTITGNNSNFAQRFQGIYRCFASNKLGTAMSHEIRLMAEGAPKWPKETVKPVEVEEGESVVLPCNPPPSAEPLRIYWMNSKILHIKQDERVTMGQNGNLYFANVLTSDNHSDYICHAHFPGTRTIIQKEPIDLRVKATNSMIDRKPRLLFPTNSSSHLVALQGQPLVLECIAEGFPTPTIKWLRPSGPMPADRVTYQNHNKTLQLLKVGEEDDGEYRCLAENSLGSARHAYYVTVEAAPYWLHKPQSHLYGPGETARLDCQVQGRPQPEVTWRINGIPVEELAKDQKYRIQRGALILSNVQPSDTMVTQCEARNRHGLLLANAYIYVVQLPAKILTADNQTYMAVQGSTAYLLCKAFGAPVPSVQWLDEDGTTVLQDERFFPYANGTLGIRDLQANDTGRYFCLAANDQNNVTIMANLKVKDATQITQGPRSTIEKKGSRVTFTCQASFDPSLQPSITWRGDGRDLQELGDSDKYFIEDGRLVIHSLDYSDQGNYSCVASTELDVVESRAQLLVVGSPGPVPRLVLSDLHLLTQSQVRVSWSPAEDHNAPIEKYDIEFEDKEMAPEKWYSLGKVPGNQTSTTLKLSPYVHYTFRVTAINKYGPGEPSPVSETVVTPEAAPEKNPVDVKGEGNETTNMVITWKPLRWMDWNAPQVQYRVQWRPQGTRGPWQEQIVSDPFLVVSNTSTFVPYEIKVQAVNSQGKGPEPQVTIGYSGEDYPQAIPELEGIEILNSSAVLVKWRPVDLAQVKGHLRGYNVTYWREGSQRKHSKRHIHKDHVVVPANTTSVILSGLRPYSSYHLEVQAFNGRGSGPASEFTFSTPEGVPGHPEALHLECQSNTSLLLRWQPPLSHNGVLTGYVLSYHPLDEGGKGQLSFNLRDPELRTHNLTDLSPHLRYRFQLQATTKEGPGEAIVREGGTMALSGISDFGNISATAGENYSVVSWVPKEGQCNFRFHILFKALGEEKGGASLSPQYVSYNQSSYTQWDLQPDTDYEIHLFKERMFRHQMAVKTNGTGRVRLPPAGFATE

One may read the Kd as the constant that tells how readily two partners part at equilibrium. Read a high Kd as weaker binding. In turn, “CCCCTTATTAGCGTTTGCCAACGACGCGACGCCGTTCAACCAGATATTGAAGCAGAACGCAAAAAGA [L1-CAM_Icore]” returned a Kd in series [1] of less than 0.1 µM.

“CCCCTTATTAGCGTTTGCCAGCGACGCCGTTCAACCAGATATTGAAGCAGAACGCAAAAAGAGAGATGAGATTGAGGCT [L1CAM_I1]”: the Kd in series [1] is less than 0.1 µM.

The sequence “CCCCTTATTAGCGTTTGCCATAGATGTGGTAGAAGTCGTCATTTGGCGAGAAAGCTCAGTCTCAGG [CD30_I3]” had a Kd in series [2] greater than 0.1 µM.

In the case of “CCCCTTATTAGCGTTTGCCATAGATGTGGTAGAAGTCGTCATTTGGCGAGAAAGCTCAGTCTCAGG [L1-CAM_I6]”, the Kd in series [1] was less than 0.1 µM.

The sequence “CCCCTTATTAGCGTTTGCCATTTCATGGTATTGATAAAGCTGTTGCCGATACTTGGAACAATTTCT [CD30_I30]” returned a Kd in series [2] of less than 0.1 µM.
